# Results taken from patent US20200087373A1 (UNIVERSITY OF COPENHAGEN, published 2020).
# Numbered stars: 1 amine (or outer) side, 2 acyl side, 3 side chain; on linkers, the order of the positions; unused ones are H or OH. Side chains are listed from the residue outwards. Ends that are not written are not given here. * marks the point of attachment. γGlu = O=C(O)[C@H](CCC(=O)[*:2])N[*:1]; Palmitoyl = CCCCCCCCCCCCCCCC(=O)*; AEEA = NCCOCCOCC(=O)O; GABA = NCCCC(=O)O; βAla = NCCC(=O)O
# T1: human GIP receptor (human, UniProt P48546 22-466)
# T1 sequence (looked up): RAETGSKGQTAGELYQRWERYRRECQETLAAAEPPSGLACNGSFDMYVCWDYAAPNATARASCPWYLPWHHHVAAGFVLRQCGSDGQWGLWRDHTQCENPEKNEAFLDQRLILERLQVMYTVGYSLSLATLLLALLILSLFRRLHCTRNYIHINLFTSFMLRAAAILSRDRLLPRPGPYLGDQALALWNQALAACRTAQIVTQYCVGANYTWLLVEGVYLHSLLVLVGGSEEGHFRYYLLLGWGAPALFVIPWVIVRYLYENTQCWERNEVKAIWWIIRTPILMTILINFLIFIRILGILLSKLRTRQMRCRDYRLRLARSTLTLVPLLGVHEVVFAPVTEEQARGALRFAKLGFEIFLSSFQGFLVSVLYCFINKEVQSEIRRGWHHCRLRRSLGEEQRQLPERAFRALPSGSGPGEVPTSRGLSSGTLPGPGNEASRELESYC
# B1: AT164 [hGIP(3-30)NH2[H18K]-C16/18+y-glutamic acid] (peptide)
# peptide: EGTFISDYSIAMDKIK([γGlu-Palmitoyl])QQDFVNWLLAQK-NH2
# modifications: N-terminus assumed
# SMILES: CCCCCCCCCCCCCCCC(=O)N[C@@H](CCC(=O)NCCCC[C@H](NC(=O)[C@@H](NC(=O)[C@H](CCCCN)NC(=O)[C@H](CC(=O)O)NC(=O)[C@H](CCSC)NC(=O)[C@H](C)NC(=O)[C@@H](NC(=O)[C@H](CO)NC(=O)[C@H](Cc1ccc(O)cc1)NC(=O)[C@H](CC(=O)O)NC(=O)[C@H](CO)NC(=O)[C@@H](NC(=O)[C@H](Cc1ccccc1)NC(=O)[C@@H](NC(=O)CNC(=O)[C@@H](N)CCC(=O)O)[C@@H](C)O)[C@@H](C)CC)[C@@H](C)CC)[C@@H](C)CC)C(=O)N[C@@H](CCC(N)=O)C(=O)N[C@@H](CCC(N)=O)C(=O)N[C@@H](CC(=O)O)C(=O)N[C@@H](Cc1ccccc1)C(=O)N[C@H](C(=O)N[C@@H](CC(N)=O)C(=O)N[C@@H](Cc1c[nH]c2ccccc12)C(=O)N[C@@H](CC(C)C)C(=O)N[C@@H](CC(C)C)C(=O)N[C@@H](C)C(=O)N[C@@H](CCC(N)=O)C(=O)N[C@@H](CCCCN)C(N)=O)C(C)C)C(=O)O
# B2: AT166 [hGIP(3-30)NH2[H18K]-C16/18+β-alanine] (peptide)
# peptide: EGTFISDYSIAMDKIK([βAla-Palmitoyl])QQDFVNWLLAQK-NH2
# modifications: N-terminus assumed
# SMILES: CCCCCCCCCCCCCCCC(=O)NCCC(=O)NCCCC[C@H](NC(=O)[C@@H](NC(=O)[C@H](CCCCN)NC(=O)[C@H](CC(=O)O)NC(=O)[C@H](CCSC)NC(=O)[C@H](C)NC(=O)[C@@H](NC(=O)[C@H](CO)NC(=O)[C@H](Cc1ccc(O)cc1)NC(=O)[C@H](CC(=O)O)NC(=O)[C@H](CO)NC(=O)[C@@H](NC(=O)[C@H](Cc1ccccc1)NC(=O)[C@@H](NC(=O)CNC(=O)[C@@H](N)CCC(=O)O)[C@@H](C)O)[C@@H](C)CC)[C@@H](C)CC)[C@@H](C)CC)C(=O)N[C@@H](CCC(N)=O)C(=O)N[C@@H](CCC(N)=O)C(=O)N[C@@H](CC(=O)O)C(=O)N[C@@H](Cc1ccccc1)C(=O)N[C@H](C(=O)N[C@@H](CC(N)=O)C(=O)N[C@@H](Cc1c[nH]c2ccccc12)C(=O)N[C@@H](CC(C)C)C(=O)N[C@@H](CC(C)C)C(=O)N[C@@H](C)C(=O)N[C@@H](CCC(N)=O)C(=O)N[C@@H](CCCCN)C(N)=O)C(C)C
# B3: AT165 [hGIP(3-30)NH2[H18K]-C16/18+y-aminobuturic acid] (peptide)
# peptide: EGTFISDYSIAMDKIK([GABA-Palmitoyl])QQDFVNWLLAQK-NH2
# modifications: N-terminus assumed
# SMILES: CCCCCCCCCCCCCCCC(=O)NCCCC(=O)NCCCC[C@H](NC(=O)[C@@H](NC(=O)[C@H](CCCCN)NC(=O)[C@H](CC(=O)O)NC(=O)[C@H](CCSC)NC(=O)[C@H](C)NC(=O)[C@@H](NC(=O)[C@H](CO)NC(=O)[C@H](Cc1ccc(O)cc1)NC(=O)[C@H](CC(=O)O)NC(=O)[C@H](CO)NC(=O)[C@@H](NC(=O)[C@H](Cc1ccccc1)NC(=O)[C@@H](NC(=O)CNC(=O)[C@@H](N)CCC(=O)O)[C@@H](C)O)[C@@H](C)CC)[C@@H](C)CC)[C@@H](C)CC)C(=O)N[C@@H](CCC(N)=O)C(=O)N[C@@H](CCC(N)=O)C(=O)N[C@@H](CC(=O)O)C(=O)N[C@@H](Cc1ccccc1)C(=O)N[C@H](C(=O)N[C@@H](CC(N)=O)C(=O)N[C@@H](Cc1c[nH]c2ccccc12)C(=O)N[C@@H](CC(C)C)C(=O)N[C@@H](CC(C)C)C(=O)N[C@@H](C)C(=O)N[C@@H](CCC(N)=O)C(=O)N[C@@H](CCCCN)C(N)=O)C(C)C
# B4: AT109 (E3pGlu, C16 at position 16) (peptide)
# peptide: EGTFISDYSIAMDKIHQQDFVNWLLAQK
# modifications: pyroglutamic acid (pGlu) in place of Glu at position 3 in GIP numbering (residue 1 of the entry); C16 (palmitoyl) fatty acid on Lys at position 16 (residue 14 of the entry); C-terminal amide taken from the series hGIP(3-30)NH2
# B5: AT107 [hGIP(3-30)NH2[T5W; D15E; H18A]-C16/16] (peptide)
# peptide: EGWFISDYSIAMEK(Palmitoyl)IAQQDFVNWLLAQK-NH2
# modifications: N-terminus assumed
# SMILES: CCCCCCCCCCCCCCCC(=O)NCCCC[C@H](NC(=O)[C@H](CCC(=O)O)NC(=O)[C@H](CCSC)NC(=O)[C@H](C)NC(=O)[C@@H](NC(=O)[C@H](CO)NC(=O)[C@H](Cc1ccc(O)cc1)NC(=O)[C@H](CC(=O)O)NC(=O)[C@H](CO)NC(=O)[C@@H](NC(=O)[C@H](Cc1ccccc1)NC(=O)[C@H](Cc1c[nH]c2ccccc12)NC(=O)CNC(=O)[C@@H](N)CCC(=O)O)[C@@H](C)CC)[C@@H](C)CC)C(=O)N[C@H](C(=O)N[C@@H](C)C(=O)N[C@@H](CCC(N)=O)C(=O)N[C@@H](CCC(N)=O)C(=O)N[C@@H](CC(=O)O)C(=O)N[C@@H](Cc1ccccc1)C(=O)N[C@H](C(=O)N[C@@H](CC(N)=O)C(=O)N[C@@H](Cc1c[nH]c2ccccc12)C(=O)N[C@@H](CC(C)C)C(=O)N[C@@H](CC(C)C)C(=O)N[C@@H](C)C(=O)N[C@@H](CCC(N)=O)C(=O)N[C@@H](CCCCN)C(N)=O)C(C)C)[C@@H](C)CC
# B6: AT117 [hGIP(3-30)NH2[H18K]-C16/18] (peptide)
# peptide: EGTFISDYSIAMDKIK(Palmitoyl)QQDFVNWLLAQK-NH2
# modifications: N-terminus assumed
# SMILES: CCCCCCCCCCCCCCCC(=O)NCCCC[C@H](NC(=O)[C@@H](NC(=O)[C@H](CCCCN)NC(=O)[C@H](CC(=O)O)NC(=O)[C@H](CCSC)NC(=O)[C@H](C)NC(=O)[C@@H](NC(=O)[C@H](CO)NC(=O)[C@H](Cc1ccc(O)cc1)NC(=O)[C@H](CC(=O)O)NC(=O)[C@H](CO)NC(=O)[C@@H](NC(=O)[C@H](Cc1ccccc1)NC(=O)[C@@H](NC(=O)CNC(=O)[C@@H](N)CCC(=O)O)[C@@H](C)O)[C@@H](C)CC)[C@@H](C)CC)[C@@H](C)CC)C(=O)N[C@@H](CCC(N)=O)C(=O)N[C@@H](CCC(N)=O)C(=O)N[C@@H](CC(=O)O)C(=O)N[C@@H](Cc1ccccc1)C(=O)N[C@H](C(=O)N[C@@H](CC(N)=O)C(=O)N[C@@H](Cc1c[nH]c2ccccc12)C(=O)N[C@@H](CC(C)C)C(=O)N[C@@H](CC(C)C)C(=O)N[C@@H](C)C(=O)N[C@@H](CCC(N)=O)C(=O)N[C@@H](CCCCN)C(N)=O)C(C)C
# B7: AT131 [hGIP(3-30)NH2[D15E; H18A]-C16/16] (peptide)
# peptide: EGTFISDYSIAMEK(Palmitoyl)IAQQDFVNWLLAQK-NH2
# modifications: N-terminus assumed
# SMILES: CCCCCCCCCCCCCCCC(=O)NCCCC[C@H](NC(=O)[C@H](CCC(=O)O)NC(=O)[C@H](CCSC)NC(=O)[C@H](C)NC(=O)[C@@H](NC(=O)[C@H](CO)NC(=O)[C@H](Cc1ccc(O)cc1)NC(=O)[C@H](CC(=O)O)NC(=O)[C@H](CO)NC(=O)[C@@H](NC(=O)[C@H](Cc1ccccc1)NC(=O)[C@@H](NC(=O)CNC(=O)[C@@H](N)CCC(=O)O)[C@@H](C)O)[C@@H](C)CC)[C@@H](C)CC)C(=O)N[C@H](C(=O)N[C@@H](C)C(=O)N[C@@H](CCC(N)=O)C(=O)N[C@@H](CCC(N)=O)C(=O)N[C@@H](CC(=O)O)C(=O)N[C@@H](Cc1ccccc1)C(=O)N[C@H](C(=O)N[C@@H](CC(N)=O)C(=O)N[C@@H](Cc1c[nH]c2ccccc12)C(=O)N[C@@H](CC(C)C)C(=O)N[C@@H](CC(C)C)C(=O)N[C@@H](C)C(=O)N[C@@H](CCC(N)=O)C(=O)N[C@@H](CCCCN)C(N)=O)C(C)C)[C@@H](C)CC
# Target: T1, human GIP receptor
# Assay: cell-based or functional assay
Binder,cAMP accumulation Fold change (from GIP(3-30)NH2) [fold],cAMP accumulation IC50 [nM],cAMP accumulation logIC50
"EGTFISDYSIAMDKIK([γGlu-AEEA-Palmitoyl])QQDFVNWLLAQK-NH2 (also: order of γGlu and AEEAc linker pieces on Lys not given here) [AT167 [hGIP(3-30)NH2[H18K]-C16/18+y-glutamic acid+8-amino-3,6-dioxaoctanoic acid]]",14.8,4.4,-8.36 log(M)
EGTFISDYSIAMDKIHQQDFVNWLLAQK-NH2 [hGIP(3-30)NH2],,64.6,-7.19 log(M)
B1,6.3,10.2,-7.99 log(M)
B2,2.9,22.9,-7.64 log(M)
B3,2.9,22.4,-7.65 log(M)

# Target: T1, human GIP receptor
# Assay: 125I-hGIP(1-42) competition binding, COS-7 cells expressing human GIPR
# Protocol: (§1) After incubation, the cells were washed twice in ice-cold binding buffer (+/−2% HSA) and lysed using 200 mM NaOH with 1% SDS for 30 min. Nonspecific binding was determined as the binding of radioactive ligand to untransfected cells.
row,Binder,IC50 [nM]
1,B4,1580
2,EGTFISDYSIAMDK(Palmitoyl)IHQQDFVNWLLAQK-NH2 [AT105 [hGIP(3-30)NH2-C16/16]],522
3,B5,5220
4,B6,292
5,B7,6510

# Target: T1, human GIP receptor
# Assay: 125I-hGIP competition binding on hGIPR COS-7 cells; fold in affinity, paired, reference taken as GIP(3-30)NH2
# Protocol: as §1
row,Binder,fold (paired) [fold]
1,B4,74
2,EGTFISDYSIAMDK(Palmitoyl)IHQQDFVNWLLAQK-NH2 [AT105 [hGIP(3-30)NH2-C16/16]],34
3,B5,186
4,B7,49

# Target: T1, human GIP receptor
# Assay: cell-based or functional assay
# Remark: another data set of the same source
Binder,cAMP - antagonisme fold (paired) [fold],cAMP - antagonisme IC50 [nM]
B4,8,
EGTFISDYSIAMDK(Palmitoyl)IHQQDFVNWLLAQK-NH2 [AT105 [hGIP(3-30)NH2-C16/16]],3.4,23.8
B5,3.1,76.9
B6,,19.4
B7,1.1,65

# Target: T1, human GIP receptor
# Assay: 125I-hGIP(1-42) competition binding, COS-7 cells expressing human GIPR, 0.1% casein (no HSA)
# Protocol: as §1
row,Binder,IC50 [nM]
1,B6,110

# Target: T1, human GIP receptor
# Assay: 125I-hGIP(1-42) competition binding, COS-7 cells expressing human GIPR, 2% HSA
# Protocol: as §1
row,Binder,IC50 [nM]
1,B6,1730
